Positions count from the first letter of the chain named. Each block holds one binder with its values, some of them ahead of it.
Biological target: TSLP, Q969D9
Assay: Kd (SPR)

B1: unnamed (protein)
chain 1: QMQLVESGGGVVQPGRSLRLSCAASGFTFSTYAMHWVRQAPGKGLEWVAVIWYDGSNKHYADSVKGRFTITRDNSKNTLNLQMNSLRAEDTAVYYCARAPRYYWYYEAFDVWGQGTMVTVSS
chain 2: SYVLTQPPSVSVAPGQTARITCGGNNLGSKSVHWYQQKPGQAPVLVVYDDSDRPSWIPERFSGSNSGNTATLTISRGEAGDEADYYCQVWDSSSDHVVFGGGTKLTVL
- Kd: 87.1 nM

B2: unnamed (protein)
chain 1: B1 chain 1 with A99S, W104E
chain 2: B1 chain 2
- Kd: 57 nM

B3: unnamed (protein)
chain 1: B1 chain 1 with Y32F, W104D, Y106W
chain 2: B1 chain 2
- Kd: 221 nM

B4: unnamed (protein)
chain 1: B1 chain 1 with Y32F, Y103D, W104D, Y105R
chain 2: B1 chain 2
- Kd: 490 nM

B5: unnamed (protein)
chain 1: B1 chain 1 with Y32F, W104Y
chain 2: B1 chain 2
- Kd: 208 nM

B6: unnamed (protein)
chain 1: B1 chain 1 with Y32F, Y103D, W104E, Y106W
chain 2: B1 chain 2
- Kd: 764 nM

B7: unnamed (protein)
chain 1: B1 chain 1 with Y32F, Y103D, W104D, Y105D
chain 2: B1 chain 2
- Kd: 112 nM

B8: unnamed (protein)
chain 1: B1 chain 1 with A99S, Y103D, W104E
chain 2: B1 chain 2
- Kd: 219 nM

B9: unnamed (protein)
chain 1: B1 chain 1 with Y103D, W104E
chain 2: B1 chain 2
- Kd: 224 nM

B10: unnamed (protein)
chain 1: B1 chain 1 with Y32F, Y103D, W104E, Y105H
chain 2: B1 chain 2
- Kd: 777 nM

B11: unnamed (protein)
chain 1: B1 chain 1 with Y32F, Y103D, W104D
chain 2: B1 chain 2
- Kd: 92.5 nM

B12: unnamed (protein)
chain 1: B1 chain 1 with Y32F, A99S, W104D
chain 2: B1 chain 2
- Kd: 41.8 nM

The next lines start with the values.

- Kd: 80.5 nM
B13: unnamed (protein)
chain 1: B1 chain 1 with Y32F, A99S, Y103D, W104D, Y106L
chain 2: B1 chain 2

- Kd: 106 nM
B14: unnamed (protein)
chain 1: B1 chain 1 with Y32F, W104E
chain 2: B1 chain 2

- Kd: 188 nM
B15: unnamed (protein)
chain 1: B1 chain 1 with Y103D, W104D, Y105L
chain 2: B1 chain 2

- Kd: 157 nM
B16: unnamed (protein)
chain 1: B1 chain 1 with Y32F, Y103D, Y106L
chain 2: B1 chain 2

- Kd: 188 nM
B17: unnamed (protein)
chain 1: B1 chain 1 with Y32F, Y103D, W104D, Y105L
chain 2: B1 chain 2

- Kd: 186 nM
B18: unnamed (protein)
chain 1: B1 chain 1 with T31S, Y32F, Y103D, W104E
chain 2: B1 chain 2

- Kd: 195 nM
B19: unnamed (protein)
chain 1: B1 chain 1 with Y103D, W104E, Y106V
chain 2: B1 chain 2
